In the supplement of paper PMC10567573:

B1: RIPK4 (parent)
chain: VSVNAQTLDGRTPLHLAAQRGHYR

Variants of: B1
Assay: protein stability index of a GFP-peptide fusion (GPS, HEK-293T) (PSI 1-6); higher = more stable
Details: c terminus: a fixed tail appended
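Also: lentivirally expressed fusions sorted by FACS into six bins by GFP to DsRed ratio, PSI derived from sequencing read proportions per bin multiplied by bin number.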

| Variant | protein stability index |
| --- | --- |
| VSVNAQTLDGVTPLHLAAQRGHYR | 2.97 |
| VSVNAQTTDGRTPLHLAAQRGHYR | 3.77 |
| VSVNAQTDDGRTPLHLAAQRGHYR | 3.74 |
| VSVNAQTYDGRTPLHLAAQRGHYR | 3.07 |
| VSVNAQTNDGRTPLHLAAQRGHYR | 3.94 |
| VSVNAQTMDGRTPLHLAAQRGHYR | 3.75 |
| VSVNAQTFDGRTPLHLAAQRGHYR | 3.29 |
| VSVNAQTWDGRTPLHLAAQRGHYR | 3.11 |
| VSVNAQTIDGRTPLHLAAQRGHYR | 3.58 |
| VSVNAQTCDGRTPLHLAAQRGHYR | 3.33 |
| VSVNAQTVDGRTPLHLAAQRGHYR | 3.92 |
| VSVNAQTGDGRTPLHLAAQRGHYR | 4.26 |
| VSVNAQTKDGRTPLHLAAQRGHYR | 3.58 |
| VSVNAQTQDGRTPLHLAAQRGHYR | 4.05 |
| VSVNAQTPDGRTPLHLAAQRGHYR | 3.95 |
| VSVNAQTHDGRTPLHLAAQRGHYR | 3.73 |
| VSVNAQTRDGRTPLHLAAQRGHYR | 3.37 |
| VSVNAQTSDGRTPLHLAAQRGHYR | 3.5 |
| VSVNAQTADGRTPLHLAAQRGHYR | 3.92 |
| VSVNAQTEDGRTPLHLAAQRGHYR | 4.33 |
| VSVNAQMLDGRTPLHLAAQRGHYR | 2.98 |
| VSVNAQRLDGRTPLHLAAQRGHYR | 3.32 |
| VSVNAQFLDGRTPLHLAAQRGHYR | 2.11 |
| VSVNAQGLDGRTPLHLAAQRGHYR | 3.35 |

| Variant | protein stability index |
| --- | --- |
| VSVNAQHLDGRTPLHLAAQRGHYR | 3.12 |
| VSVNAQDLDGRTPLHLAAQRGHYR | 3.77 |
| VSVNAQALDGRTPLHLAAQRGHYR | 3.34 |
| VSVNAQELDGRTPLHLAAQRGHYR | 3.94 |
| VSVNAQWLDGRTPLHLAAQRGHYR | 2.32 |
| VSVNAQLLDGRTPLHLAAQRGHYR | 3.2 |
| VSVNAQILDGRTPLHLAAQRGHYR | 2.63 |
| VSVNAQPLDGRTPLHLAAQRGHYR | 3.36 |
| VSVNAQVLDGRTPLHLAAQRGHYR | 3.23 |
| VSVNAQYLDGRTPLHLAAQRGHYR | 2.97 |
| VSVNAQKLDGRTPLHLAAQRGHYR | 3.36 |
| VSVNAQSLDGRTPLHLAAQRGHYR | 3.29 |
| VSVNAQQLDGRTPLHLAAQRGHYR | 4.04 |
| VSVNAQCLDGRTPLHLAAQRGHYR | 2.8 |
| VSVNAQNLDGRTPLHLAAQRGHYR | 3.64 |
| VSVNAQTLDGRTPNHLAAQRGHYR | 3.92 |
| VSVNAQTLDGRTPQHLAAQRGHYR | 3.75 |
| VSVNAQTLDGRTPIHLAAQRGHYR | 3.39 |
| VSVNAQTLDGRTPRHLAAQRGHYR | 3.7 |
| VSVNAQTLDGRTPHHLAAQRGHYR | 3.96 |
| VSVNAQTLDGRTPFHLAAQRGHYR | 3.1 |
| VSVNAQTLDGRTPEHLAAQRGHYR | 4.47 |
| VSVNAQTLDGRTPKHLAAQRGHYR | 3.96 |
| VSVNAQTLDGRTPMHLAAQRGHYR | 3.26 |

| Variant | protein stability index |
| --- | --- |
| VSVNAQTLDGRTPAHLAAQRGHYR | 4.07 |
| VSVNAQTLDGRTPVHLAAQRGHYR | 3.4 |
| VSVNAQTLDGRTPTHLAAQRGHYR | 3.5 |
| VSVNAQTLDGRTPPHLAAQRGHYR | 4 |
| VSVNAQTLDGRTPCHLAAQRGHYR | 1.96 |
| VSVNAQTLDGRTPDHLAAQRGHYR | 3.62 |
| VSVNAQTLDGRTPGHLAAQRGHYR | 3.52 |
| VSVNAQTLDGRTPSHLAAQRGHYR | 3.83 |
| VSVNAYTLDGRTPLHLAAQRGHYR | 2.59 |
| VSVNAATLDGRTPLHLAAQRGHYR | 3.43 |
| VSVNAMTLDGRTPLHLAAQRGHYR | 2.87 |
| VSVNAPTLDGRTPLHLAAQRGHYR | 3.96 |
| VSVNANTLDGRTPLHLAAQRGHYR | 3.03 |
| VSVNAWTLDGRTPLHLAAQRGHYR | 2.49 |
| VSVNASTLDGRTPLHLAAQRGHYR | 3.78 |
| VSVNALTLDGRTPLHLAAQRGHYR | 3.69 |
| VSVNADTLDGRTPLHLAAQRGHYR | 3.93 |
| VSVNAGTLDGRTPLHLAAQRGHYR | 3.13 |
| VSVNAITLDGRTPLHLAAQRGHYR | 2.69 |
| VSVNAETLDGRTPLHLAAQRGHYR | 2.95 |
| VSVNAFTLDGRTPLHLAAQRGHYR | 2.22 |
| VSVNARTLDGRTPLHLAAQRGHYR | 3.02 |
| VSVNAVTLDGRTPLHLAAQRGHYR | 2.68 |
| VSVNATTLDGRTPLHLAAQRGHYR | 3.44 |

| Variant | protein stability index |
| --- | --- |
| VSVNACTLDGRTPLHLAAQRGHYR | 2.62 |
| VSVNAHTLDGRTPLHLAAQRGHYR | 3.52 |
| VSVNAKTLDGRTPLHLAAQRGHYR | 3.21 |
| VSVNAQTLYGRTPLHLAAQRGHYR | 2.48 |
| VSVNAQTLIGRTPLHLAAQRGHYR | 2.33 |
| VSVNAQTLMGRTPLHLAAQRGHYR | 2.62 |
| VSVNAQTLVGRTPLHLAAQRGHYR | 2.9 |
| VSVNAQTLQGRTPLHLAAQRGHYR | 2.92 |
| VSVNAQTLAGRTPLHLAAQRGHYR | 3.09 |
| VSVNAQTLEGRTPLHLAAQRGHYR | 3.78 |
| VSVNAQTLWGRTPLHLAAQRGHYR | 2.35 |
| VSVNAQTLPGRTPLHLAAQRGHYR | 3.49 |
| VSVNAQTLCGRTPLHLAAQRGHYR | 3.14 |
| VSVNAQTLRGRTPLHLAAQRGHYR | 3.31 |
| VSVNAQTLSGRTPLHLAAQRGHYR | 3.04 |
| VSVNAQTLLGRTPLHLAAQRGHYR | 2.81 |
| VSVNAQTLGGRTPLHLAAQRGHYR | 3.02 |
| VSVNAQTLKGRTPLHLAAQRGHYR | 2.79 |
| VSVNAQTLHGRTPLHLAAQRGHYR | 3.15 |
| VSVNAQTLFGRTPLHLAAQRGHYR | 2.25 |
| VSVNAQTLTGRTPLHLAAQRGHYR | 3.22 |
| VSVNAQTLNGRTPLHLAAQRGHYR | 3.33 |
